The source of these data is patent US20250295801A1, “CD25 ANTIBODIES, ANTIBODY DRUG CONJUGATES, AND USES THEREOF” (Seagen Inc., priority 2024, published 2025).

Like-named read-outs stand apart in the source and are kept apart here.

For experiment [1], the target named is T1, mouse CD25 on Yac-1 mouse lymphoma cells (mouse) (UniProt P01590).
T1 sequence (looked up): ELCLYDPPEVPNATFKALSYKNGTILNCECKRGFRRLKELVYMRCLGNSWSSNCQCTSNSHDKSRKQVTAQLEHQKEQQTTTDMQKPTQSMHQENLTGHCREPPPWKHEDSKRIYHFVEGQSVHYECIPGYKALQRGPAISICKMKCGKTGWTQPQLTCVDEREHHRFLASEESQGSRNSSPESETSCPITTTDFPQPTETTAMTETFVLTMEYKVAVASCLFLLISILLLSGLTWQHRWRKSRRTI
Description: saturation binding by flow cytometry on Yac-1 cells.

Experiment [2] deals with T2, recombinant cynomolgus CD25 (cynomolgus, UniProt H6WS54 22-213).
T2 construct: also called cyno CD25; cynomolgus CD25/IL2RA
T2 sequence: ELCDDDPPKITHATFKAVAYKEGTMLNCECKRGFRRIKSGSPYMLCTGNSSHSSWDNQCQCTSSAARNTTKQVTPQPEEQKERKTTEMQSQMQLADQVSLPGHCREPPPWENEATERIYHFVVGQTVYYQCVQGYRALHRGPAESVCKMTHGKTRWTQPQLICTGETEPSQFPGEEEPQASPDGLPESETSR
Put plainly: ELISA on plate-coated cynomolgus CD25.
Description: (§1) Saturation binding ELISA experiments were performed using soluble recombinant antigens, which were diluted to an appropriate concentration in 50 mM carbonate buffer, pH 9.6. To each well of a 96- or 384-well Maxisorb ELISA plate was added 100 μL of soluble antigen. The plate was sealed and stored at 4° C. overnight. The plate was then washed 3-5 times with PBS-T was buffer (PBS, pH 7.4+0.05% Tween-20). The wells were blocked using 300 μL/well of PBS-T buffer containing BSA for 1 hour at room temperature, then washed 3-5 times with PBS-T. Dilutions of antibodies were prepared in blocking buffer and added to each well in a volume of 100 μL. The antibodies were incubated for 1 hour at room temperature, and then washed 3-5 times with PBS-T. HRP-conjugated secondary antibodies (anti-human Fc) were then added and incubated for 1 hour at room temperature. The plate was washed 3-5 times with PBS-T. The ELISA was developed by adding 100 μL of TMB solution and incubating for 3-15 min at room temperature. To stop the reaction, 100 μL of 1 N sulfuric acid was added to each well. The absorbance at 450 nm was determined using a Spectramax 190 plate reader (Molecular Biosciences) and the data plotted using GraphPad Prism 6.

In experiment [3] the target is T3, recombinant human CD25 (human, UniProt P01589 22-213, limits assumed, biotinylated in the Octet kinetic assay (site not stated)).
T3 construct: Soluble recombinant antigen; It was coated on plates for ELISA and used as bought biotinylated protein for BLI; The ELISA and BLI reagents may be different constructs; also called hCD25; CD25/IL2RA
T3 sequence: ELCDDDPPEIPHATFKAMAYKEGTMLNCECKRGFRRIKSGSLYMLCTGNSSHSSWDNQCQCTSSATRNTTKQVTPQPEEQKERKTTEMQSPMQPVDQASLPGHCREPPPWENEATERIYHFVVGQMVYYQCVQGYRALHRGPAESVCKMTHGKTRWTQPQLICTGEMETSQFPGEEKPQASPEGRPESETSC
Put plainly: saturation binding ELISA on recombinant human CD25.

The target of experiment [4] is T3, recombinant human CD25. Put plainly: saturation binding ELISA on recombinant human CD25. This is another data set of the same source.
Description: as §1
The target in experiment [5] is T3, recombinant human CD25. Description: saturation binding ELISA on recombinant human CD25. This is another data set of the same source.
Description: as §1
Experiment [6] deals with T2, recombinant cynomolgus CD25. Description: saturation binding ELISA on recombinant cynomolgus CD25.
Description: as §1
Experiment [7] addresses T3, recombinant human CD25. Put plainly: saturation binding ELISA on plate-coated recombinant human CD25.
Description: as §1
The target in experiment [8] is T3, recombinant human CD25. Description: BLI kinetics (Octet RED384), biotinylated hCD25 on SAX tips, 1:1 global fit.
Description: Biotinylated recombinant human CD25 was obtained from Acro Biosystems. Biotinylated hCD25 protein was loaded on SAX (High sensitivity streptavidin) tips at 0.8 nM loading density. Affinity measurements were run using a ForteBio Octet RED384 instrument in the kinetic buffer comprising 1×PBS, 0.1% BSA, 0.02% Tween20, pH 7.4. Association measurements were performed for 300 seconds and disassociation measurements were performed for 900 seconds. Each curve was reference subtracted and modeled using a 1:1 global fit. KD results are reported as kₐ divided by kd.
Experiment [9] addresses T2, recombinant cynomolgus CD25. Put plainly: saturation binding ELISA on plate-coated recombinant cynomolgus CD25.
Description: as §1
Experiment [10] has as its target T4, human CD25 on CD25 expressing cells (human, UniProt P01589 22-272).
T4 construct: Endogenous CD25 on human lymphoma lines (L540cy, Karpas-299) and on human Treg cells; also called CD25 on L540cy cells; CD25 on Karpas-299 cells
T4 sequence: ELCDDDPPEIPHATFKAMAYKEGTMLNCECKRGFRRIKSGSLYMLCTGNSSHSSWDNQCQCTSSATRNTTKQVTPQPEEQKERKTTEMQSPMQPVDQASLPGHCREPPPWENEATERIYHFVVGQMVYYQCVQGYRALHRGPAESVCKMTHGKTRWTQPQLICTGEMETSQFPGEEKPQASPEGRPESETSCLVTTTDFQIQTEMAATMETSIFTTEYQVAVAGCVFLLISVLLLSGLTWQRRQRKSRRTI
Description: saturation binding by flow cytometry on L540cy cells (CD25: 55,000 per cell), MFI (Gmean).
Description: (§2) For cellular binding analysis by FACS, cells expressing the target protein of interest (2×10⁵) were treated with a serial dilution of indicated antibody in staining buffer (PBS, 5% FBS, 0.2% NaN₃). Samples were incubated for 1 hour on ice and washed twice with ice-cold staining buffer. Cells were resuspended with anti-human IgG-AF488 or IgG-AF647 (JacksonImmunoResearch), 1:200 dilution in staining buffer) for 1 hour on ice. Cells were washed twice with ice cold staining buffer and resuspended in staining buffer. Labeled cells were examined by flow cytometry on an Invitrogen Attune NxT flow cytometer gated to exclude nonviable cells, and the data analyzed using FlowJo10 software. When determined, the KD was calculated using GraphPad Prism 6 using non-linear regression.
(§3) Saturation binding analysis was also performed using high CD25 expressing L540cy cells.

In experiment [11] the target is T4, human CD25 on CD25 expressing cells. Described as above. The source holds these as a separate data set.
Description: as §2, §3
For experiment [12], the target named is T3, recombinant human CD25. Description: saturation binding ELISA on recombinant human CD25; EC50 relative to SG25Ab-9.
Description: as §1
Experiment [13] has as its target T2, recombinant cynomolgus CD25. Description: saturation binding ELISA on recombinant cynomolgus CD25; EC50 relative to SG25Ab-9.
Description: as §1
Experiment [14] deals with T4, human CD25 on CD25 expressing cells. Description: saturation binding by flow cytometry on Karpas 299 cells (CD25: 123,000 per cell), GeoMean MFI.
Description: as §2
The next experiment concerns recombinant cyno CD25. Put plainly: Saturation binding analysis by ELISA. Further details: species or system cynomolgus. The conditions noted are these: compared with human CD25, FIG. 1A, 1B, 7. Here is the method: Saturation binding ELISA experiments were performed using soluble recombinant antigens, which were diluted to an appropriate concentration in 50 mM carbonate buffer, pH 9.6. To each well of a 96- or 384-well Maxisorb ELISA plate was added 100 μL of soluble antigen. The plate was sealed and stored at 4° C. overnight. The plate was then washed 3-5 times with PBS-T was buffer (PBS, pH 7.4+0.05% Tween-20). The wells were blocked using 300 μL/well of PBS-T buffer containing BSA for 1 hour at room temperature, then washed 3-5 times with PBS-T. Dilutions of antibodies were prepared in blocking buffer and added to each well in a volume of 100 μL. The antibodies were incubated for 1 hour at room temperature, and then washed 3-5 times with PBS-T. HRP-conjugated secondary antibodies (anti-human Fc) were then added and incubated for 1 hour at room temperature. The plate was washed 3-5 times with PBS-T. The ELISA was developed by adding 100 μL of TMB solution and incubating for 3-15 min at room temperature. To stop the reaction, 100 μL of 1 N sulfuric acid was added to each well. The absorbance at 450 nm was determined using a Spectramax 190 plate reader ([…]) and the data plotted using GraphPad Prism 6.
Saturation binding analysis of CD25 antibody SG25Ab-9 and detuned CD25 antibody SG25Ab-9 YH98A on recombinant human and cyno CD25 was assessed by ELISA.

The next experiment concerns CD25 expressing cells. Put plainly: Internalization into CD25 expressing cells. The conditions noted are these: FIG. 1E. It counts as cell-based, human.

B1: PC61 mIgG2a (antibody, from another filing, V domains shown)
VH: EVQLQQSGAELVRPGTSVKLSCKVSGDTITAYYIHFVKQRPGQGLEWIGRIDPEDDSTEYAEKFKNKATITANTSSNTAHLKYSRLTSEDTATYFCTTDNMGATEFVYWGQGTLVTVSS
VL: QVVLTQPKSVSASLESTVKLSCKLNSGNIGSYYMHWYQQREGRSPTNLIYRDDKRPDGAPDRFSGSIDISSNSAFLTINNVQTEDEAMYFCHSYDGRMYIFGGGTKLTV
In the case of B1, in experiment [1], the Kd turned out to be 0.7 nM.

B2: CD25 antibody SG25Ab-9 (antibody, human IgG1, lambda, V domains shown)
VH: QVQLVQSGAEVKKPGESLKISCKGSGYSSTSYWIGWVRQMPGKGLEWMGIIYPGDSDTRYSPSFQGQVTISADKSISTAYLQWSSLKASDTAMYYCARLGSYYAFDIWGRGTMVTVSS
VL: QSALTQPASVSASPGQSITISCTGTSSDVGAYIYVSWYQQLSGKPPKLILYDVSKRPSGISDRFSGSKSGNTASLTISGLQADDEADYYCSSYTRSSTWVFGGGTQLTVLG
notes: Fully human antibody from a phage scFv library, expressed as IgG1 with a lambda light chain; HC and LC are the entries without signal peptide; also called SG25Ab-9 IgG1; SGAb25-9
Take B2: the “EC50 (read off the curve)” value is 0.1 to 0.2 nM in [2]; 0.1 to 0.2 nM with recombinant human CD25 [4]; 0.1 to 0.2 nM with recombinant human CD25 [5]; 0.1 to 0.2 nM with recombinant human CD25 [7]; 0.1 to 0.2 nM in experiment [9]; roughly 0.8 nM in [10]. Moreover, in [11], the “EC50 (read off the curve)” value is roughly 1 nM. For the same molecule, the 50% effective concentration (EC50) in the experiment with recombinant human CD25 [3] is 0.1 nM; in experiment [6] it was 0.25 nM. Also, the dissociation constant Kd with recombinant human CD25 [8] was 0.1 nM. Moreover, in the experiment with recombinant human CD25 [8], the koff came to 2.7e-05 s⁻¹. Moreover, the kon with recombinant human CD25 [8] was 210000 M⁻¹ s⁻¹.

B3: detuned CD25 antibody SG25Ab-9 YH98A (antibody, human IgG1, lambda, V domains shown)
VH: QVQLVQSGAEVKKPGESLKISCKGSGYSSTSYWIGWVRQMPGKGLEWMGIIYPGDSDTRYSPSFQGQVTISADKSISTAYLQWSSLKASDTAMYYCARLGSAYAFDIWGRGTMVTVSS
VL: QSALTQPASVSASPGQSITISCTGTSSDVGAYIYVSWYQQLSGKPPKLILYDVSKRPSGISDRFSGSKSGNTASLTISGLQADDEADYYCSSYTRSSTWVFGGGTQLTVLG
notes: IgG1; Tyr to Ala in CDR-H3 (YH98A); also called SGAb25-9 YH98A
B3: the EC50 in the experiment with recombinant human CD25 [3] is roughly 116 nM. Besides, in [6], the EC50 was roughly 238 nM. Further, in the experiment with recombinant human CD25 [8], the Kd stood at 14 nM, the off-rate (koff) stood at 0.0043 s⁻¹ and the kon worked out at 310000 M⁻¹ s⁻¹. Besides, the “Fold Change” value in the experiment with recombinant human CD25 [12] is roughly 1160. The “Fold Change” value in experiment [13] is roughly 950.

B4: CD25 antibody SG25Ab-4 (antibody, human IgG1, lambda, V domains shown)
VH: EVQLVQSGAEVKKPGESLKISCKGPEYSFNRYWIAWVRQRPGKGLEWMGIIYPGDSDARYSPTFEGHVTLSADMSLTTAYLQWSSLRASDTAMYYCARLGSYYAFDIWGKGTMVTVSS
VL: QSALTQPASVSGSPGQSITIFCTGTSSDVGGYNYVSWYQQHPGKAPKLMIYDVSKRPSGVSNRFSGSKSGNTASLTISGLQAEDEADYYCSSYTSSSTWVFGGGTQLTVLS
notes: IgG1 format; also called SGAb25-4
As for B4, the concentration for a half-maximal effect (EC50 (read off the curve)) in experiment [2] was roughly 0.1 nM. Besides, the binding result in experiment [14] is given as “binds”.

B5: SG25Ab-4: human anti-CD25 IgG1 antibody; VH SEQ ID NO: 31, VL SEQ ID NO: 32 (antibody, V domains shown)
VH: EVQLVQSGAEVKKPGESLKISCKGPEYSFNRYWIAWVRQRPGKGLEWMGIIYPGDSDARYSPTFEGHVTLSADMSLTTAYLQWSSLRASDTAMYYCARLGSYYAFDIWGKGTMVTVSS
VL: QSALTQPASVSGSPGQSITIFCTGTSSDVGGYNYVSWYQQHPGKAPKLMIYDVSKRPSGVSNRFSGSKSGNTASLTISGLQAEDEADYYCSSYTSSSTWVFGGGTQLTVL
As to B5, the “binding to recombinant cynomolgus CD25” value in the experiment on recombinant cyno CD25 is reported as “efficiently bound cynomolgus CD25”. Also, the “internalization into CD25 expressing cells” value in the experiment on CD25 expressing cells is on record as “efficiently internalized into CD25 expressing cells”.
